# B1: SARS-CoV-2 nsp9 (natural protein, UniProt P0DTD1 4141-4253, looked up)
# chain: NNELSPVALRQMSCAAGTTQTACTDDNALAYYNTTKGGRFVLALLSDLQDLKWARFPKSDGTGTIYTELEPPCRFVTDTPKGPKVKYLYFIKGLNNLNRGMVLGSLAATVRLQ
# notes: also called nsp9_(COV19); Nsp9_(COV19)
# B2: anti-nsp9 VHH_(2nsp23) (VHH)
# VHH: QVQLQESGGGLVQPGGSLRLSCAASGLAFSMYTMGWFRQAPGKEREFVAMIISSGDSTDYADSVKGRFTISRDNGKNTVYLQMDSLKPEDTAVYYCAAPKFRYYFSTSPGDFDSWGQGTQVTVSS
# Tests used:
# crystal structure = target: the molecule itself; assay: crystal structure
# SARS-CoV-2 nsp9 = target: T1, SARS-CoV-2 nsp9 (SARS-CoV-2, UniProt P0DTD1); assay: crystal structure; conditions: both partners purified
# T1 construct: also called nsp9_(COV19); Nsp9_(COV19)
Binder,binding result (crystal structure),binding result (SARS-CoV-2 nsp9)
B1,binds,–
B2,–,binds
